From paper PMC4758095

Assays:
[1] = live immunostaining; surface biotinylation pull-down; details: glycan lost; control: wild type SR-AI
[2] = FAM-oAβ uptake, confocal fluorescence quantification, COS-7; details: glycan lost; control: wild type SR-AI
[3] = not described (stated in discussion only); details: glycan lost; control: wild type MARCO

| Protein | localisation_or_trafficking [1] | other: ligand internalisation [2] | localisation_or_trafficking [3] |
| --- | --- | --- | --- |
| SR-AI (scavenger receptor A type I): N143Q-N184Q (protein) parent chain: MEQWDHFHNQQEDTDSCSESVKFDARSMTALLPPNPKNSPSLQEKLKSFKAALIALYLLVFAVLIPLIGIVAAQLLKWETKNCSVSSTNANDITQSLTGKGNDSEEEMRFQEVFMEHMSNMEKRIQHILDMEANLMDTEHFQNFSMTTDQRFNDILLQLSTLFSSVQGHGNAIDEISKSLISLNTTLLDLQLNIENLNGKIQENTFKQQEEISKLEERVYNVSAEIMAMKEEQVHLEQEIKGEVKVLNNITNDLRLKDWEHSQTLRNITLIQGPPGPPGEKGDRGPTGESGPRGFPGPIGPPGLKGDRGAIGFPGSRGLPGYAGRPGNSGPKGQKGEKGSGNTLTPFTKVRLVGGSGPHEGRVEILHSGQWGTICDDRWEVRVGQVVCRSLGYPGVQAVHKAAHFGQGTGPIWLNEVFCFGRESSIEECKIRQWGTRACSHSEDAGVTCTL | no change | decreases |  |
| SR-AI (scavenger receptor A type I): N82Q (protein) parent chain: MEQWDHFHNQQEDTDSCSESVKFDARSMTALLPPNPKNSPSLQEKLKSFKAALIALYLLVFAVLIPLIGIVAAQLLKWETKNCSVSSTNANDITQSLTGKGNDSEEEMRFQEVFMEHMSNMEKRIQHILDMEANLMDTEHFQNFSMTTDQRFNDILLQLSTLFSSVQGHGNAIDEISKSLISLNTTLLDLQLNIENLNGKIQENTFKQQEEISKLEERVYNVSAEIMAMKEEQVHLEQEIKGEVKVLNNITNDLRLKDWEHSQTLRNITLIQGPPGPPGEKGDRGPTGESGPRGFPGPIGPPGLKGDRGAIGFPGSRGLPGYAGRPGNSGPKGQKGEKGSGNTLTPFTKVRLVGGSGPHEGRVEILHSGQWGTICDDRWEVRVGQVVCRSLGYPGVQAVHKAAHFGQGTGPIWLNEVFCFGRESSIEECKIRQWGTRACSHSEDAGVTCTL | no change | no change |  |
| SR-AI (scavenger receptor A type I): N184Q (protein) parent chain: MEQWDHFHNQQEDTDSCSESVKFDARSMTALLPPNPKNSPSLQEKLKSFKAALIALYLLVFAVLIPLIGIVAAQLLKWETKNCSVSSTNANDITQSLTGKGNDSEEEMRFQEVFMEHMSNMEKRIQHILDMEANLMDTEHFQNFSMTTDQRFNDILLQLSTLFSSVQGHGNAIDEISKSLISLNTTLLDLQLNIENLNGKIQENTFKQQEEISKLEERVYNVSAEIMAMKEEQVHLEQEIKGEVKVLNNITNDLRLKDWEHSQTLRNITLIQGPPGPPGEKGDRGPTGESGPRGFPGPIGPPGLKGDRGAIGFPGSRGLPGYAGRPGNSGPKGQKGEKGSGNTLTPFTKVRLVGGSGPHEGRVEILHSGQWGTICDDRWEVRVGQVVCRSLGYPGVQAVHKAAHFGQGTGPIWLNEVFCFGRESSIEECKIRQWGTRACSHSEDAGVTCTL | no change | no change |  |
| SR-AI (scavenger receptor A type I): N102Q (protein) parent chain: MEQWDHFHNQQEDTDSCSESVKFDARSMTALLPPNPKNSPSLQEKLKSFKAALIALYLLVFAVLIPLIGIVAAQLLKWETKNCSVSSTNANDITQSLTGKGNDSEEEMRFQEVFMEHMSNMEKRIQHILDMEANLMDTEHFQNFSMTTDQRFNDILLQLSTLFSSVQGHGNAIDEISKSLISLNTTLLDLQLNIENLNGKIQENTFKQQEEISKLEERVYNVSAEIMAMKEEQVHLEQEIKGEVKVLNNITNDLRLKDWEHSQTLRNITLIQGPPGPPGEKGDRGPTGESGPRGFPGPIGPPGLKGDRGAIGFPGSRGLPGYAGRPGNSGPKGQKGEKGSGNTLTPFTKVRLVGGSGPHEGRVEILHSGQWGTICDDRWEVRVGQVVCRSLGYPGVQAVHKAAHFGQGTGPIWLNEVFCFGRESSIEECKIRQWGTRACSHSEDAGVTCTL | no change | no change |  |
| SR-AI (scavenger receptor A type I): N221Q (protein) parent chain: MEQWDHFHNQQEDTDSCSESVKFDARSMTALLPPNPKNSPSLQEKLKSFKAALIALYLLVFAVLIPLIGIVAAQLLKWETKNCSVSSTNANDITQSLTGKGNDSEEEMRFQEVFMEHMSNMEKRIQHILDMEANLMDTEHFQNFSMTTDQRFNDILLQLSTLFSSVQGHGNAIDEISKSLISLNTTLLDLQLNIENLNGKIQENTFKQQEEISKLEERVYNVSAEIMAMKEEQVHLEQEIKGEVKVLNNITNDLRLKDWEHSQTLRNITLIQGPPGPPGEKGDRGPTGESGPRGFPGPIGPPGLKGDRGAIGFPGSRGLPGYAGRPGNSGPKGQKGEKGSGNTLTPFTKVRLVGGSGPHEGRVEILHSGQWGTICDDRWEVRVGQVVCRSLGYPGVQAVHKAAHFGQGTGPIWLNEVFCFGRESSIEECKIRQWGTRACSHSEDAGVTCTL | no change | no change |  |
| SR-AI (scavenger receptor A type I): N102Q-N143Q (protein) parent chain: MEQWDHFHNQQEDTDSCSESVKFDARSMTALLPPNPKNSPSLQEKLKSFKAALIALYLLVFAVLIPLIGIVAAQLLKWETKNCSVSSTNANDITQSLTGKGNDSEEEMRFQEVFMEHMSNMEKRIQHILDMEANLMDTEHFQNFSMTTDQRFNDILLQLSTLFSSVQGHGNAIDEISKSLISLNTTLLDLQLNIENLNGKIQENTFKQQEEISKLEERVYNVSAEIMAMKEEQVHLEQEIKGEVKVLNNITNDLRLKDWEHSQTLRNITLIQGPPGPPGEKGDRGPTGESGPRGFPGPIGPPGLKGDRGAIGFPGSRGLPGYAGRPGNSGPKGQKGEKGSGNTLTPFTKVRLVGGSGPHEGRVEILHSGQWGTICDDRWEVRVGQVVCRSLGYPGVQAVHKAAHFGQGTGPIWLNEVFCFGRESSIEECKIRQWGTRACSHSEDAGVTCTL | no change | decreases |  |
| SR-AI (scavenger receptor A type I): N102Q-N184Q (protein) parent chain: MEQWDHFHNQQEDTDSCSESVKFDARSMTALLPPNPKNSPSLQEKLKSFKAALIALYLLVFAVLIPLIGIVAAQLLKWETKNCSVSSTNANDITQSLTGKGNDSEEEMRFQEVFMEHMSNMEKRIQHILDMEANLMDTEHFQNFSMTTDQRFNDILLQLSTLFSSVQGHGNAIDEISKSLISLNTTLLDLQLNIENLNGKIQENTFKQQEEISKLEERVYNVSAEIMAMKEEQVHLEQEIKGEVKVLNNITNDLRLKDWEHSQTLRNITLIQGPPGPPGEKGDRGPTGESGPRGFPGPIGPPGLKGDRGAIGFPGSRGLPGYAGRPGNSGPKGQKGEKGSGNTLTPFTKVRLVGGSGPHEGRVEILHSGQWGTICDDRWEVRVGQVVCRSLGYPGVQAVHKAAHFGQGTGPIWLNEVFCFGRESSIEECKIRQWGTRACSHSEDAGVTCTL |  | no change |  |
| SR-AI (scavenger receptor A type I): N249Q (protein) parent chain: MEQWDHFHNQQEDTDSCSESVKFDARSMTALLPPNPKNSPSLQEKLKSFKAALIALYLLVFAVLIPLIGIVAAQLLKWETKNCSVSSTNANDITQSLTGKGNDSEEEMRFQEVFMEHMSNMEKRIQHILDMEANLMDTEHFQNFSMTTDQRFNDILLQLSTLFSSVQGHGNAIDEISKSLISLNTTLLDLQLNIENLNGKIQENTFKQQEEISKLEERVYNVSAEIMAMKEEQVHLEQEIKGEVKVLNNITNDLRLKDWEHSQTLRNITLIQGPPGPPGEKGDRGPTGESGPRGFPGPIGPPGLKGDRGAIGFPGSRGLPGYAGRPGNSGPKGQKGEKGSGNTLTPFTKVRLVGGSGPHEGRVEILHSGQWGTICDDRWEVRVGQVVCRSLGYPGVQAVHKAAHFGQGTGPIWLNEVFCFGRESSIEECKIRQWGTRACSHSEDAGVTCTL | no change | no change |  |
| SR-AI (scavenger receptor A type I): N143Q (protein) parent chain: MEQWDHFHNQQEDTDSCSESVKFDARSMTALLPPNPKNSPSLQEKLKSFKAALIALYLLVFAVLIPLIGIVAAQLLKWETKNCSVSSTNANDITQSLTGKGNDSEEEMRFQEVFMEHMSNMEKRIQHILDMEANLMDTEHFQNFSMTTDQRFNDILLQLSTLFSSVQGHGNAIDEISKSLISLNTTLLDLQLNIENLNGKIQENTFKQQEEISKLEERVYNVSAEIMAMKEEQVHLEQEIKGEVKVLNNITNDLRLKDWEHSQTLRNITLIQGPPGPPGEKGDRGPTGESGPRGFPGPIGPPGLKGDRGAIGFPGSRGLPGYAGRPGNSGPKGQKGEKGSGNTLTPFTKVRLVGGSGPHEGRVEILHSGQWGTICDDRWEVRVGQVVCRSLGYPGVQAVHKAAHFGQGTGPIWLNEVFCFGRESSIEECKIRQWGTRACSHSEDAGVTCTL | no change | no change |  |
| SR-AI (scavenger receptor A type I): N267Q (protein) parent chain: MEQWDHFHNQQEDTDSCSESVKFDARSMTALLPPNPKNSPSLQEKLKSFKAALIALYLLVFAVLIPLIGIVAAQLLKWETKNCSVSSTNANDITQSLTGKGNDSEEEMRFQEVFMEHMSNMEKRIQHILDMEANLMDTEHFQNFSMTTDQRFNDILLQLSTLFSSVQGHGNAIDEISKSLISLNTTLLDLQLNIENLNGKIQENTFKQQEEISKLEERVYNVSAEIMAMKEEQVHLEQEIKGEVKVLNNITNDLRLKDWEHSQTLRNITLIQGPPGPPGEKGDRGPTGESGPRGFPGPIGPPGLKGDRGAIGFPGSRGLPGYAGRPGNSGPKGQKGEKGSGNTLTPFTKVRLVGGSGPHEGRVEILHSGQWGTICDDRWEVRVGQVVCRSLGYPGVQAVHKAAHFGQGTGPIWLNEVFCFGRESSIEECKIRQWGTRACSHSEDAGVTCTL | no change | no change |  |
| MARCO: N83Q-136Q (protein) parent chain: MRNKKILKEDELLSETQQAAFHQIAMEPFEINVPKPKRRNGVNFSLAVVVIYLILLTAGAGLLVVQVLNLQARLRVLEMYFLNDTLAAEDSPSFSLLQSAHPGEHLAQGASRLQVLQAQLTWVRVSHEHLLQRVDNFTQNPGMFRIKGEQGAPGLQGHKGAMGMPGAPGPPGPPAEKGAKGAMGRDGATGPSGPQGPPGVKGEAGLQGPQGAPGKQGATGTPGPQGEKGSKGDGGLIGPKGETGTKGEKGDLGLPGSKGDRGMKGDAGVMGPPGAQGSKGDFGRPGPPGLAGFPGAKGDQGQPGLQGVPGPPGAVGHPGAKGEPGSAGSPGRAGLPGSPGSPGATGLKGSKGDTGLQGQQGRKGESGVPGPAGVKGEQGSPGLAGPKGAPGQAGQKGDQGVKGSSGEQGVKGEKGERGENSVSVRIVGSSNRGRAEVYYSGTWGTICDDEWQNSDAIVFCRMLGYSKGRALYKVGAGTGQIWLDNVQCRGTESTLWSCTKNSWGHHDCSHEEDAGVECSV |  |  | abolishes |
